How the values were obtained:
mono-ubiquitin = molecular target: T1, mono-ubiquitin (UniProt P0CG47 1-76); assay: ITC; ubiquitin samples (200–500 μM) titrated into USP11 samples (20–30 μM); 50 mM Tris-Cl, pH 7.5, 150 mM NaCl, 1% (v/v) glycerol; 25 °C; one-site binding model; conditions: both partners purified
T1 construct: ubiquitin (the reaction product, residues 1-76); also called product ubiquitin; source: E. coli BL21(DE3)-Codon Plus; purification of the ubiquitin constructs not described

linear diubiquitin = molecular target: T2, linear diubiquitin (UniProt P0CG47 1-76; P0CG47 1-76); assay: as above; conditions: both partners purified
T2 construct: ubiquitin, distal moiety (residues 1-76); ubiquitin, proximal moiety, its Met1 (Met77 of the chain) joined by a peptide bond to Gly76 of the distal moiety; source: E. coli BL21(DE3)-Codon Plus; purification of the ubiquitin constructs not described

Row | Binder | Kd (mono-ubiquitin) [nM] | binding result (linear diubiquitin)
1 | USP11-D1D2 (enzyme, human, USP11, human, catalytic subdomain D1, residues Met295-Pro489; numbering of UniProt P51784; linker that replaces the insertion between subdomains D1 and D2; USP11, human, catalytic subdomain D2, residues Pro778-Leu937; also called USP11 catalytic core; USP11 catalytic domain; source: E. coli BL21(DE3)-Codon Plus, purified (Ni2+ HiTrap chelating column, SEC Superdex 200); not shown: His tag (from …)) MSEEDEDFKGQPGICGLTNLGNTCFMNSALQCLSNVPQLTEYFLNNCYLEELNFRNPLGMKGEIAEAYADLVKQAWSGHHRSIVPHVFKNKVGHFASQFLGYQQHDSQELLSFLLDGLHEDLNRVKKKEYVELCDAAGRPDQEVAQEAWQNHKRRNDSVIVDTFHGLFKSTLVCPDCGNVSVTFDPFCYLSVPLPASTSKPVRLQECIELFTTVETLEKENPWYCPSCKQHQLATKKLDLWMLPEILIIHLKRFSYTKFSREKLDTLVEFPIRDLDFSEFVIQPQNESNPELYKYDLIAVSNHYGGMRDGHYTTFACNKDSGQWHYFDDNSVSPVNENQIESKAAYVLFYQRQDVARRLL | ~3500 | –
2 | USP11-D1D2 H399Q (enzyme, human, USP11, human, catalytic subdomain D1, residues Met295-Pro489; numbering of UniProt P51784; linker that replaces the insertion between subdomains D1 and D2; USP11, human, catalytic subdomain D2, residues Pro778-Leu937; source: E. coli BL21(DE3)-Codon Plus, purified (Ni2+ HiTrap chelating column, SEC Superdex 200); not shown: His tag (from the Ni2+ chelating column)) MSEEDEDFKGQPGICGLTNLGNTCFMNSALQCLSNVPQLTEYFLNNCYLEELNFRNPLGMKGEIAEAYADLVKQAWSGHHRSIVPHVFKNKVGHFASQFLGYQQQDSQELLSFLLDGLHEDLNRVKKKEYVELCDAAGRPDQEVAQEAWQNHKRRNDSVIVDTFHGLFKSTLVCPDCGNVSVTFDPFCYLSVPLPASTSKPVRLQECIELFTTVETLEKENPWYCPSCKQHQLATKKLDLWMLPEILIIHLKRFSYTKFSREKLDTLVEFPIRDLDFSEFVIQPQNESNPELYKYDLIAVSNHYGGMRDGHYTTFACNKDSGQWHYFDDNSVSPVNENQIESKAAYVLFYQRQDVARRLL | ~2000 | –

Next, values leading:

Row | Kd (mono-ubiquitin) [nM] | binding result (linear diubiquitin) | Binder
3 | – | binds | USP11-D1D2 C318S/D886G (enzyme, human, USP11, human, catalytic subdomain D1, residues Met295-Pro489; numbering of UniProt P51784; linker that replaces the insertion between subdomains D1 and D2; USP11, human, catalytic subdomain D2, residues Pro778-Leu937; Made from the USP11-D1D2 C318S template; source: E. coli BL21(DE3)-Codon Plus, purified (Ni2+ HiTrap chelating column, SEC Superdex 200); not shown: His tag (from the Ni2+ chelating …)) MSEEDEDFKGQPGICGLTNLGNTSFMNSALQCLSNVPQLTEYFLNNCYLEELNFRNPLGMKGEIAEAYADLVKQAWSGHHRSIVPHVFKNKVGHFASQFLGYQQHDSQELLSFLLDGLHEDLNRVKKKEYVELCDAAGRPDQEVAQEAWQNHKRRNDSVIVDTFHGLFKSTLVCPDCGNVSVTFDPFCYLSVPLPASTSKPVRLQECIELFTTVETLEKENPWYCPSCKQHQLATKKLDLWMLPEILIIHLKRFSYTKFSREKLDTLVEFPIRDLDFSEFVIQPQNESNPELYKYDLIAVSNHYGGMRGGHYTTFACNKDSGQWHYFDDNSVSPVNENQIESKAAYVLFYQRQDVARRLL
4 | 1100 | – | USP11-D1D2 R885G (enzyme, human, USP11, human, catalytic subdomain D1, residues Met295-Pro489; numbering of UniProt P51784; linker that replaces the insertion between subdomains D1 and D2; USP11, human, catalytic subdomain D2, residues Pro778-Leu937; source: E. coli BL21(DE3)-Codon Plus, purified (Ni2+ HiTrap chelating column, SEC Superdex 200); not shown: His tag (from the Ni2+ chelating column)) MSEEDEDFKGQPGICGLTNLGNTCFMNSALQCLSNVPQLTEYFLNNCYLEELNFRNPLGMKGEIAEAYADLVKQAWSGHHRSIVPHVFKNKVGHFASQFLGYQQHDSQELLSFLLDGLHEDLNRVKKKEYVELCDAAGRPDQEVAQEAWQNHKRRNDSVIVDTFHGLFKSTLVCPDCGNVSVTFDPFCYLSVPLPASTSKPVRLQECIELFTTVETLEKENPWYCPSCKQHQLATKKLDLWMLPEILIIHLKRFSYTKFSREKLDTLVEFPIRDLDFSEFVIQPQNESNPELYKYDLIAVSNHYGGMGDGHYTTFACNKDSGQWHYFDDNSVSPVNENQIESKAAYVLFYQRQDVARRLL

Reference: paper PMC10637973 (The Journal of Biological Chemistry, 2023)
